Reference: PMC10716051, “Cryo-EM reveals how Hsp90 and FKBP immunophilins co-regulate the glucocorticoid receptor” (Nature Structural & Molecular Biology, 2023)

T1: human FKBP51 (human, UniProt Q13451 1-457)
T1 construct: FKBP51, human; The His6 tag is cleavable; source: bacterial expression plasmid pET151, purified
T1 sequence: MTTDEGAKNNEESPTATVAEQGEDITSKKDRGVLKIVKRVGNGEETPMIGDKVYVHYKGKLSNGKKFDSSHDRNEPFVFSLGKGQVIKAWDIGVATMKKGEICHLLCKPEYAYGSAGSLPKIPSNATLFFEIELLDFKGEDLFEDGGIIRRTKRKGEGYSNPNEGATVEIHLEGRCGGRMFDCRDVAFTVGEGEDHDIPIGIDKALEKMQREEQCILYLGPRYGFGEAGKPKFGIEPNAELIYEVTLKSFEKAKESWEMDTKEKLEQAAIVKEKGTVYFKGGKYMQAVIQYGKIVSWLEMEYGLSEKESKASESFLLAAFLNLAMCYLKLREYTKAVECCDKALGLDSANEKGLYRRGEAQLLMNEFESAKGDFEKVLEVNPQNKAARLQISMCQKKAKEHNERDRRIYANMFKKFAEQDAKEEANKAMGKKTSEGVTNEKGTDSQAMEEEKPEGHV

B1: human FKBP52 (natural protein)
chain: MTAEEMKATESGAQSAPLPMEGVDISPKQDEGVLKVIKREGTGTEMPMIGDRVFVHYTGWLLDGTKFDSSLDRKDKFSFDLGKGEVIKAWDIAIATMKVGEVCHITCKPEYAYGSAGSPPKIPPNATLVFEVELFEFKGEDLTEEEDGGIIRRIQTRGEGYAKPNEGAIVEVALEGYYKDKLFDQRELRFEIGEGENLDLPYGLERAIQRMEKGEHSIVYLKPSYAFGSVGKEKFQIPPNAELKYELHLKSFEKAKESWEMNSEEKLEQSTIVKERGTVYFKEGKYKQALLQYKKIVSWLEYESSFSNEEAQKAQALRLASHLNLAMCHLKLQAFSAAIESCNKALELDSNNEKGLFRRGEAHLAVNDFELARADFQKVLQLYPNNKAAKTQLAVCQQRIRRQLAREKKLYANMFERLAEEENKAKAEASSGDHPTDTEMKEEQKSNTAGSQSQVETEA
notes: FKBP52 (gene FKBP4), human; The His6 tag is cleavable; source: bacterial expression plasmid pET151, purified
B2: human GR DBD-LBD (residues 418-777, F602S) (domain or fragment, UniProt P04150 418-777, looked up)
chain: PKLCLVCSDEASGCHYGVLTCGSCKVFFKRAVEGQHNYLCAGRNDCIIDKIRRKNCPACRYRKCLQAGMNLEARKTKKKIKGIQQATTGVSQETSENPGNKTIVPATLPQLTPTLVSLLEVIEPEVLYAGYDSSVPDSTWRIMTTLNMLGGRQVIAAVKWAKAIPGFRNLHLDDQMTLLQYSWMSLMAFALGWRSYRQSSANLLCFAPDLIINEQRMTLPCMYDQCKHMLYVSSELHRLQVSYEEYLCMKTLLLLSSVPKDGLKSQELFDEIRMTYIKELGKAIVKREGNSSQNWQRFYQLTKLLDSMHEVVENLLNYCFQTFLDKTMSIEFPEMLAEIITNQIPKYSNGNIKKLLFHQK
notes: glucocorticoid receptor, human; codon optimized; The His6-MBP tag is cleavable; the complex was pulled down on MBP-GR DBD-LBD; Only the LBD was visible in the maps; also called glucocorticoid receptor; MBP-GR DBD-LBD; source: E. coli BL21 star (DE3), purified (Ni-NTA, size exclusion); not shown: MBP, N-terminal, kept

What was measured:
Settings in all cases: both partners purified
[1] = target: T2, human Hsp90α (human, UniProt P07900 1-732); assay: cryo-EM structure; GR chaperone cycle reconstituted in vitro from purified components (GR DBD-LBD, Hsp70, Hsp40, Hop, Hsp90, p23, Bag-1) with FKBP52; 20 mM sodium molybdate; pulldown on MBP-GR DBD-LBD, size exclusion, 0.02% glutaraldehyde crosslinking; datasets I and II
T2 construct: Hsp90α, human; also called Hsp90A; Hsp90B (the two protomers of the dimer)

[2] = target: B1; assay: as above
[3] = target: T1, human FKBP51; assay: cryo-EM structure; GR chaperone cycle reconstituted in vitro from purified components (GR DBD-LBD, Hsp70, Hsp40, Hop, Hsp90, p23, Bag-1) with FKBP51; 20 mM sodium molybdate; pulldown on MBP-GR DBD-LBD, size exclusion, 0.02% glutaraldehyde crosslinking; datasets III and IV

binding result [1]	binding result [2]	binding result [3]	Binder
binds			B1
binds	binds	binds	B2
